Consider one molecule from publication PMC11211491, “Design of a covalent protein-protein interaction inhibitor of SRPKs to suppress angiogenesis and invasion of cancer cells” (Communications Chemistry, 2024).

For this test, the target named is SRPK1ΔNS3 (UniProt Q96SB4).

aryl‑sulfonyl fluoride = aryl-sulfonyl fluoride group, a lysine-reactive covalent warhead for SuFEx reactions

In turn, Ac-RERARTRRK(aryl‑sulfonyl fluoride)RARTRERARTR-NH2 [DBS1-1] showed an IC50 of inhibition of the phosphorylation of SRSF1 by SRPK1ΔNS3 (in vitro kinase assay, [32P]ATP); blocked pair SRPK1-SRSF1 of 640 nM.
